Assay results taken from US8778635B2, “Thermostable proteins and methods making and using thereof” (Becton, Dickinson and Company, priority 2006, dated 2014).
Substitutions are numbered along the chain they refer to. Names and notes keep the numbering of the source.

Experiments:
[1] = Circular dichroism melting temperature (Tm), CD signal at 222 nm versus temperature; type: physicochemical; parameters: key to + ΔTm / − ΔTm: Tm difference in °C from reference 3M-GGBP; settings: for increase of Tm over the reference protein (in words): among the thirteen modified GGBPs, reference 3M-GGBP; for + ΔTm: increase of Tm over reference protein 3M-GGBP; for + ΔTm / − ΔTm: CD, PBS; for Previously Tested, See - Table II: ΔTm: repeated from Table II, modified 3M-GGBP versus 3M-GGBP; for − ΔTm: decrease of Tm versus reference protein 3M-GGBP
Protocol: Circular Dichroism (CD) spectra were preformed on a JASCO J-810. Samples of purified fluorophore-labeled proteins were exhaustively dialyzed into phosphate buffered saline (PBS) (comprised of 137 mM NaCl, 10 mM phosphate and 2.7 mM KCl, pH 7.4). The loss of secondary structure of 3M-GGBP and W183C-GGBP was observed by recording the CD signal at 222 nm as a function of temperature. During the experiment, the temperature of the sample changed at a rate of ˜1° C./min between 20 and 80° C. The apparent melting temperature at the midpoint of the transition (Tm) was obtained by fitting the experimental data points (CD signal versus temperature) with a sigmoidal function.

[2] = Fluorescence assay of glucose binding (glucose titration, Kd and fluorescence response)
Protocol: Dye-protein fluorophore (N,N′-dimethyl-N-(iodoacetyl)-N′-(7-nitrobenz-2-oxa-1,3-diazol-4-yl)ethylenediamine designated IANBD) or acrylodan coupling was performed as described by the manufacturer (Molecular Probes).
Briefly, 0.5 ml of 3M-GGBP (1-2 mg/ml) was treated with 2.5 molar excess of dithiothreitol for 30 min. A10-fold molar excess solution of IANBD in DMSO (0.5 mg/100 uL) was then added. While protected from light, the protein and dye were gently mixed for 4 h at 25° C. before the unreacted dye was removed by Nap-5 column chromatography (Amersham Biosciences).
Binding constants were determined by titration of increasing concentrations of glucose into a 0.1 μM protein in PBS and monitoring the change in fluorescence. The Kd was determined from the following relationships as adapted from Pisarchick and Thompson (Pisarchick, M. L. and Thompson, N. L. Biophys. J. (1990), 58, 1235-1249):
[formula] where F is fluorescence intensity, Finf is fluorescence at infinity, F0 is fluorescence at zero
[formula] where [Glc]free is the concentration of free glucose and [Glc]tot and [Prot]tot are the total concentrations of glucose and protein, respectively. For the SM4, the ratio of the area under the fluorescence curve from 514-540 nm to the area under the curve at 450-470 nm was used in place of fluorescence intensity in the equations above. […]

[3] = Storage stability of purified / labeled protein; type: physicochemical; settings: acrylodan-labeled
Protocol: The modified GGBP were expressed from E. coli strain Sg13009 following standard protocols (Qiagen). After induction, bacteria were lysed using Bugbuster protein extraction reagent (Novagen) and purified by IMAC using Talon cobalt^2+ resin (Clontech). The purified protein in solution was filtered through 100 kDa cutoff filter and then concentrated using a 10 kDa cutoff filter (Millipore). The protein (1-2 mg/ml) was dialyzed at 4° C. into a solution containing 1M NaCl, 10 mM Tris-HCl, and 50 mM NaPO4 (pH 8) and stored at 4° C. Under these conditions the protein was active for at least six months. The yield from the purification was approximately 10 mg/l.
After labeling with acrylodan the SM4 was transferred to a buffer for frozen storage. The protein was dialyzed against a solution of 0.01M MES, 30 mM glucose (pH 5.5-5.7) for 24 h with three changes of buffer. After dialysis the protein was quantified and diluted to a 100 μM solution using the same buffer. The vials were then placed directly into a −70° C. freezer for storage. The protein is stable for at least 3 months under these conditions.
To lyophilize the SM4 protein, the protein solution was dialyzed against ammonium bicarbonate (50 mM, pH 7) for 24 h with three changes of buffer. The protein was passed through a 0.2 um Supor filter (Pall) and was aliquoted into amber vials (2 mg/vial). […]

Q: Which “Tm*” value ([1]; Tm determined in PBS, fluorophore-labeled protein) does the source give for “W183C-acrylodan: reference W183C-GGBP labeled with acrylodan” here?
A: Its value is 39.8 ± 2%.

Q: And the Kd ([2]; glucose titrated into 0.1 μM protein in PBS)?
A: The Kd was 19.6 ± 10%.

Q: And the “Fluorescent Response” value ([2]; glucose, labeled protein)?
A: The value was 3.4 ± 8%.

B1: W183C(1, 3, 5, 10): W183C (SEQ ID NO:4) with N39I, G82E, Q83K, N84D, Q175E, Q177H, L178M, N259E and N260S (protein)
chain: ADTRIGVTIYKYDDNFMSVVRKAIEQDAKAAPDVQLLMIDSQNDQSKQNDQIDVLLAKGVKALAINLVDPAAAGTVIEKAREKDVPVVFFNKEPSRKALDSYDKAYYVGTDSKESGIIQGDLIAKHWAANQGWDLNKDGQIQFVLLKGEPGHPDAEARTTYVIKELNDKGIKTEELHMDTAMCDTAQAKDKMDAWLSGPNANKIEVVIANNDAMAMGAVEALKAHNKSSIPVFGVDALPEALALVKSGALAGTVLNDAESQAKATFDLAKNLADGKGAADGTNWKIDNKVVRVPYVGVDKDNLAEFSKK
Q: Which results are given for B1?
A: Tm greater than that of the reference protein (W183C) ([1]; FIG. 1, protocol of Example 2): about 9.4 °C; melting temperature ([1]; without the termini additions present, in PBS): about 55.4 °C; time the protein is stable, frozen storage ([3]; 100 μM in 0.01M MES, 30 mM glucose (pH 5.5-5.7), −70° C.): at least 3 months; time the protein is stable, lyophilized ([3]; lyophilized from ammonium bicarbonate (50 mM, pH 7)): at least 6 months

B2: Modified protein 1: 3M-GGBP (SEQ ID NO:3) with substitution N39I (protein)
chain: ADTRIGVTIYKYDDNFMSVVRKAIEQDAKAAPDVQLLMIDSQNDQSKQNDQIDVLLAKGVKALAINLVDPAAAGTVIEKARGQNVPVVFFNKEPSRKALDSYDKAYYVGTDSKESGIIQGDLIAKHWAANQGWDLNKDGQIQFVLLKGCPGHPDAEARTTYVIKELNDKGIKTEQLQLDTAMWDTAQAKDKMDAWLSGPNANKIEVVIANNDRMAMGAVEALKAHNKSSIPVFGVDASPEALALVKSGALAGTVLNDANNQAKATFDLAKNLADGKGAADGTNWKIDNKVVRVPYVGVDKDNLAEFSKK
Q: Which “increase of Tm over the reference protein (in words)” value (shortened to “increase of Tm”) [1] does the source give for B2 here?
A: Its value is “greatest increase of Tm”.

Q: What about the “+ ΔTm” value [1] of the same molecule?
A: Its value is 1.

Q: And the “Previously Tested, See - Table II: ΔTm” value [1]?
A: The value was “+1”.

B3: Modified protein 7: 3M-GGBP (SEQ ID NO:3) with substitutions G198S, P199S, N200K (protein)
chain: B2 chain with I39N, G198S, P199S, N200K
Q: What does the source list for B3?
A: + ΔTm [1]: 0.5; Previously Tested, See - Table II: ΔTm [1]: +0.5

B4: Modified protein 12: 3M-GGBP (SEQ ID NO:3) with substitutions N283D, W284L (protein)
chain: B2 chain with I39N, N283D, W284L
Q: Which “− ΔTm” value [1] does the source give for B4 here?
A: The value was 3.7.

Q: What about the “Previously Tested, See - Table II: ΔTm” value [1] of the same molecule?
A: Its value is −3.7.

B5: Modified protein 6: 3M-GGBP (SEQ ID NO:3) with substitutions Q175I, Q177E (protein)
chain: B2 chain with I39N, Q175I, Q177E
Q: With B5 as the molecule, how does the “− ΔTm” value [1] read?
A: Its value is 0.3.

B6: Modified protein 5: 3M-GGBP (SEQ ID NO:3) with substitutions Q175E, Q177H, L178M (protein)
chain: B2 chain with I39N, Q175E, Q177H, L178M
Q: For B6, which “increase of Tm” value [1] is on record?
A: Its value is “greatest increase of Tm”.

Q: And the “+ ΔTm” value [1]?
A: Its value is 3.

B7: Modified protein 9: 3M-GGBP (SEQ ID NO:3) with substitution N226K (protein)
chain: B2 chain with I39N, N226K
Q: With B7 as the molecule, how does the “+ ΔTm” value [1] read?
A: The value was 0.3.

B8: Modified protein 8: 3M-GGBP (SEQ ID NO:3) with substitution N226G (protein)
chain: B2 chain with I39N, N226G
Q: For B8, which “+ ΔTm” value [1] is on record?
A: The value was 0.9.

B9: Modified protein 4: 3M-GGBP (SEQ ID NO:3) with substitution N130D (protein)
chain: B2 chain with I39N, N130D
Q: Which “− ΔTm” value [1] does the source give for B9 here?
A: The value was 5.2.

Q: What about the “Previously Tested, See - Table II: ΔTm” value [1] of the same molecule?
A: Its value is −5.2.

B10: Modified protein 10: 3M-GGBP (SEQ ID NO:3) with substitutions N259E, N260S (protein)
chain: B2 chain with I39N, N259E, N260S
Q: With B10 as the molecule, how does the “increase of Tm” value [1] read?
A: The value was “greatest increase of Tm”.

Q: And the “+ ΔTm” value [1]?
A: Its value is 3.6.

B11: Modified protein 3: 3M-GGBP (SEQ ID NO:3) with substitutions G82E, Q83K, N84D (protein)
chain: B2 chain with I39N, G82E, Q83K, N84D
Q: Which “increase of Tm” value [1] does the source give for B11 here?
A: The value was “greatest increase of Tm”.

Q: And the “+ ΔTm” value [1]?
A: The value was 1.5.

B12: Modified protein 11: 3M-GGBP (SEQ ID NO:3) with substitutions K270Y, N271S (protein)
chain: B2 chain with I39N, K270Y, N271S
Q: For B12, which “− ΔTm” value [1] is on record?
A: Its value is 3.5.

Q: And the “Previously Tested, See - Table II: ΔTm” value [1]?
A: The value was −3.5.

B13: Modified protein 13: 3M-GGBP (SEQ ID NO:3) with substitution N302T (protein)
chain: B2 chain with I39N, N302T
Q: With B13 as the molecule, how does the “− ΔTm” value [1] read?
A: Its value is 0.2.
